Numbering of substitutions follows the chain as printed. Numbers in names are those of the source. One block for each binder: values may come before it.
Molecular target: T1, CD20 protein on the surface of B-cells (Raji cells, a Burkitt's lymphoma cell line) (human, UniProt P11836 1-297)
T1 construct: also called CD20 antigen; B lymphocyte antigen CD20
T1 sequence: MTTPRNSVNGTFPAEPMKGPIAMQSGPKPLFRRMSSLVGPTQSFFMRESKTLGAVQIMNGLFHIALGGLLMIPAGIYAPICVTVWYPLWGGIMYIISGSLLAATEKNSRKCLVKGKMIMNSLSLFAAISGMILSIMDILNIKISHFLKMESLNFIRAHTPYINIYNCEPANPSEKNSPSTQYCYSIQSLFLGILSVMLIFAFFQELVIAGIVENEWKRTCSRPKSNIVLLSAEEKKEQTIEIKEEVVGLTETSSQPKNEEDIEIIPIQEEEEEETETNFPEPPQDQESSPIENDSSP
Assay: indirect immunofluorescence on Raji cells, flow cytometry
Description: Binding affinity of an antibody to its target antigen can be an indicator of antibody efficacy. An indirect immunofluorescence cell-based binding assay was conducted to determine the dissociation constant (KD) between select CD20-binding proteins of the invention and the targeted antigen (CD20 protein on the surface of B-Cells). […] Because of this, the raw data was fitted to the following equation: […]

binding result: binds
B1: CD20-binding protein with M1/M2/M3/M4/M7 modifications (V3Q, A9S, I10S, V59S, L153D in the rituximab light chain) (antibody, human IgG1, kappa, V domains shown)
VH: QVQLQQPGAELVKPGASVKMSCKASGYTFTSYNMHWVKQTPGRGLEWIGAIYPGNGDTSYNQKFKGKATLTADKSSSTAYMQLSSLTSEDSAVYYCARSTYYGGDWYFNVWGAGTTVTVSA
VL: QIQLSQSPSSLSASPGEKVTMTCRASSSVSYIHWFQQKPGSSPKPWIYATSNLASGVPSRFSGSGSGTSYSLTISRVEAEDAATYYCQQWTSNPPTFGGGTKLEIKR
notes: Heavy chain unmodified; whole IgG as for the wild type; also called M1/2/3/4/7

binding result: no binding
B2: CD20-binding protein with the M9 modification (Y101S in the rituximab Fab heavy chain, in the CDR) (antibody, human IgG1, kappa, V domains shown)
VH: B1 VH with Y101S
VL: B1 VL with Q3V, S9A, S10I, S59V
notes: Whole IgG as for the wild type; also called M9 (Y101S); CDR mutation
